Columns and labels:
[1] = target: T1, cynomolgus monkey PD-L1 on a stable cell line (Probio, M00573) (cynomolgus monkey, UniProt G7PSE7 19-290); assay: FACS on stable cell line expressing cynomolgus monkey PD-L1
T1 construct: whole, on cells; also called cells expressing monkey PD-L1

[2] = target: T2, recombinant human PD-L1-His protein (GenScript, Z03425) (human, UniProt Q9NZQ7 19-238); assay: competition ELISA on coated human PD-L1-His; row antibody titrated, competitor biotinylated Tecentriq detected
T2 construct: Bought protein; also called recombinant human PD-L1 protein; human PD-L1 antigen protein; not shown: His tag
T2 sequence (Q9NZQ7 19-238 limits assumed, one chain of several): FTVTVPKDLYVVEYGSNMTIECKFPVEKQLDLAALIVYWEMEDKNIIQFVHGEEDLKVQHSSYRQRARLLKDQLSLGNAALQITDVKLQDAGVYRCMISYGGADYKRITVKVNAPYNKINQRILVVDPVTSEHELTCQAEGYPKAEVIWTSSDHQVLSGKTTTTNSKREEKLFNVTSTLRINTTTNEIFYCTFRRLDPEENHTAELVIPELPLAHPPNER

[3] = target: T2, recombinant human PD-L1-His protein …; assay: SPR, Biacore 8K, antibody Fc-captured, human PD-L1-His as analyte
[4] = target: T2, recombinant human PD-L1-His protein …; assay: indirect ELISA, plate coated with recombinant human PD-L1-His
[5] = target: T3, human PD-L1 on a stable cell line (Probio, RD00868) (human, UniProt Q9NZQ7 19-290); assay: FACS on stable cell line expressing human PD-L1
T3 construct: whole, on cells; also called cells expressing human PD-L1
T3 sequence (Q9NZQ7 19-290): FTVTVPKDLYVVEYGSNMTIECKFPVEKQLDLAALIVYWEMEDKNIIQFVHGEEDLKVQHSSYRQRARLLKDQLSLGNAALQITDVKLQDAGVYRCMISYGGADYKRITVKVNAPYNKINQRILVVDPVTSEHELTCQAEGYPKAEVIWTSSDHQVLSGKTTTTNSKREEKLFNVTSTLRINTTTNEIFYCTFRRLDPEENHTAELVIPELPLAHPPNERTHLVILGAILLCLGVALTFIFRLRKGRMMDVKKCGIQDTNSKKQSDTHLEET

[6] = target: T4, mouse PD-L1 on a stable cell line (Probio, M00567) (mouse, UniProt Q9EP73 19-290); assay: FACS on stable cell line expressing mouse PD-L1
T4 construct: whole, on cells; also called cells expressing mouse PD-L1
T4 sequence (Q9EP73 19-290, one chain of several): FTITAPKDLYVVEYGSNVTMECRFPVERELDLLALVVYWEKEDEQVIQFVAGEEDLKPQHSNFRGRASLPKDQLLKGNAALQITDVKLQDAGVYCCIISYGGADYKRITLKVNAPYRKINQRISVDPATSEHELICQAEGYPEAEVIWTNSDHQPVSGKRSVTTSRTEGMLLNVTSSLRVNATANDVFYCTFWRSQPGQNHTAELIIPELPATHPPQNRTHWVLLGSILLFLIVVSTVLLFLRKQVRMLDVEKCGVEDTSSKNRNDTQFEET

[7] = target: T2, recombinant human PD-L1-His protein …; assay: competition ELISA on coated human PD-L1-His; row antibody titrated, competitor biotinylated Avelumab detected

T1 sequence (G7PSE7 entry or part of it, one chain of several): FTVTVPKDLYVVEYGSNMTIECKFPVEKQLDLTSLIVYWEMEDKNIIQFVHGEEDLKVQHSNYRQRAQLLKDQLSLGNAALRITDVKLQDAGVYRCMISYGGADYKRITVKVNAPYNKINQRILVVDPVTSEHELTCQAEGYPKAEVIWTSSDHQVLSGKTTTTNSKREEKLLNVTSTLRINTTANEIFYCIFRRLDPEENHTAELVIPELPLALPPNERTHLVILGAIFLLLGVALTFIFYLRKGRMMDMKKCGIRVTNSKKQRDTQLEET

| Binder | EC50 [1] | IC50 [2] | Kd [3] | koff [3] | kon [3] | EC50 [4] | EC50 [5] | EC50 [6] | IC50 [7] |
| --- | --- | --- | --- | --- | --- | --- | --- | --- | --- |
| AHP30019 fully human antibody (antibody, IgG1, V domains shown, not shown: a dimerising Fc or GST) VH: QVQLVQSGGGLVQPGGSLRLSCAGSGSSFSLAVMGWYRQAPGRQRELVGIISSAAGTNYADSVKGRFTISRDDAKNTLYLQMNSLTAEDTAVYYCWRGAVPGDPYGRWGQGTLVTVSS VL: EIVLTQSPLSLPVTLGQPASISCRSSQSLVHSDGNTYLNWFQQRPGQPPRRLIYEVSNRDSGVPDRFSGSGSGTDFTLKISRVEAEDVGVYYCMQGTHWPWTFGQGTKVEIK | 43.5 nM | 0.972 nM | 50.3 nM | 0.00146 s⁻¹ | 29000 M⁻¹ s⁻¹ | 4.26 nM | 15.9 nM | 31.8 nM | – |
| AHP31319 fully human antibody (antibody, IgG1, V domains shown, not shown: a dimerising Fc or GST) VH: EVQLVQSGGGLVQPGGSLRLSCAGSGSSFSLAVMGWYRQAPGRQRELVGIISSAAGTNYADSVKGRFTISRDDAKNTLYLQMNSLTAEDTAVYYCWRGAVPGDPYGRWGQGTTVTVSS VL: EIVMTQSPGTLSLSPGEGATLSCRASQSVSNNYLAWYQQKHGQAPRLLIYGASSRATGIPDRFSGSGSGTDFTLTINRLEPEDFALYYCQQYGNSPGTFGQGTKVDIK | 1.34 nM | 96.1 nM | 5.08 nM | 0.000848 s⁻¹ | 167000 M⁻¹ s⁻¹ | 0.173 nM | 0.977 nM | 0.746 nM | 8.97 nM |

Binders with a lower EC50 [1], results first:

| EC50 [1] | IC50 [2] | Kd [3] | koff [3] | kon [3] | EC50 [4] | EC50 [5] | EC50 [6] | IC50 [7] | Binder |
| --- | --- | --- | --- | --- | --- | --- | --- | --- | --- |
| 0.894 nM | – | – | – | – | – | – | – | – | Avelumab (antibody, V domains shown) VH: EVQLLESGGGLVQPGGSLRLSCAASGFTFSSYIMMWVRQAPGKGLEWVSSIYPSGGITFYADTVKGRFTISRDNSKNTLYLQMNSLRAEDTAVYYCARIKLGTVTTVDYWGQGTLVTVSS VL: QSALTQPASVSGSPGQSITISCTGTSSDVGGYNYVSWYQQHPGKAPKLMIYDVSNRPSGVSNRFSGSKSGNTASLTISGLQAEDEADYYCSSYTSSSTRVFGTGTKVTVLG |
| 0.725 nM | 2.81 nM | 0.305 nM | 0.000425 s⁻¹ | 1.39e+06 M⁻¹ s⁻¹ | 0.275 nM | 0.193 nM | 0.184 nM | 1.34 nM | AHP30005 fully human antibody (antibody, IgG1, V domains shown, not shown: a dimerising Fc or GST) VH: QVQLVDSGGGLVQAGGSLSVSCAVSGRTALTYAVGWFRQAPGKERDFVAGINWSGSMTNYADSVKGRFTISRDNQKNTVYLQMNSLKPEDTAVYYCAATRTAITMPPQRDGVDYWGKGTTVTVSS VL: not shown |

Source: patent EP4806918A1 (Nanjing Probio Biotech Co., Ltd., dated 2026)
